Positions count from the first letter of the chain named.
B1: anti-CD30L Reference 1 antibody (antibody, human IgG1, lambda, V domains shown)
VH: QVQLQESGPGLVKPSETLSLTCTVSGGSISSYIWSWIRQPAGKGLEWIGRIYASGNTNYNPSLKSRVTISVDTSKNQFSLKLSSMTAADTAVYYCARDYRVAGTYYYYYGLDVWGQGTTVTVSS
VL: QSALTQPASVSGSPGQSITISCTGTSSDVGVYDYVSWYQQHPGKAPKLMIYEVSNRPSGVSNRFSGSKSGNTASLTISGLQTEDEADYYCSSYTSRSTWVFGGGTKLTVLG
B2: Clone 1, Mouse IgG (antibody, V domains shown)
VH: QVQLQESGPGLVKPSETLSLTCTVSGGSISGYYWSWIRQPPVKGLEWIGYIFYSGYTKYNPSLKSRVTISVDTSKNQFSLKLSSVTAADTAVYYCARDRWDFDYWGQGALVTVSS
VL: AIQMTQSPSYLSASVGDRVTIACRASQGIRNNLGWYQQKPGKAPKLLIYAESSLQSGVPSRFSGSGSGTDFTLTISSLQPEDFATYYCLQDFNYPYTFGQGTKLEIK
B3: Clone 1, Human IgG1 (antibody, V domains shown)
VH: B2 VH
VL: B2 VL
B4: Clone 2, Mouse IgG (antibody, V domains shown)
VH: EVQLVESGGGLVQPGRSLRLSCAASGFNFDDYAMHWVRQAPGKGLEWVSGISWRSGNIGYAGSVKGRFTISRDNAKNSLYLQMNSLRPEDSALYYCAKDKGIGFNWNYEGFDYWGQGTLVTVSS
VL: DIQMTQSPSSLSASVGDRVTITCRASQGISNHLAWFQQKPGKAPKSLIYAASSLQSGVPSKFSGSGSGTDFTLTISSLQPEDFATYYCQQYVTYPLTFGGGTKVEIK
B5: Clone 2, Human IgG1 (antibody, V domains shown)
VH: B4 VH
VL: B4 VL
B6: Clone 3 (antibody, V domains shown)
VH: B2 VH
VL: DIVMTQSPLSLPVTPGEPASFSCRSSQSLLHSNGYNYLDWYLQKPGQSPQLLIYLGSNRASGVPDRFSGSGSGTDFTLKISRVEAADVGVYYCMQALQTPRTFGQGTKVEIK
notes: hybridoma clone
B7: Clone 1 (antibody, V domains shown)
VH: B2 VH
VL: B2 VL
notes: also called anti-CD30L antibody clone 1 (parental)
B8: Clone 2 (antibody, V domains shown)
VH: B4 VH
VL: B4 VL
notes: also called anti-CD30L antibody clone 2 (parental)
B9: Clone 4 (antibody, V domains shown)
VH: QVQLVESGGGVVQPGRSLRLSCAASGFPFSSYGMHWVRQAPGKGLEWVTFIWFDGNNKDYADSVKGRFSVSRDNSKNTLYLQMNSLRADDTAVYYCARNGVYYGSGAYVDYWGQGTLVTVSS
VL: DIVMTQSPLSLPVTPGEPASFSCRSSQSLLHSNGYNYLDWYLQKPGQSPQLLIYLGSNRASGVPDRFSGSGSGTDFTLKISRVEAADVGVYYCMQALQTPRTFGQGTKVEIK
notes: hybridoma clone
B10: anti-CD30L antibody clone 80 (antibody, V domains shown)
VH: EVQLVESGGGLVQPGGSLRLSCEVSGFTFSSYDMHWVRQVTGTGLEWVSSIGIGGDTYYPGSVKGRFTISRENAKNSLYLQMNSLRGGDTGVYYCARGEWDLLWYFMDVWGKGTTVTVSS
VL: B4 VL with V15I, N31S, H32W, F36Y, S46L, K61R, Y91A, V92N, T93S, Y94F
notes: purified recombinant IgG, mouse strain #1

Each binder was assayed against cynomolgus CD30L on HEK293 cells (cynomolgus) (assay: cell-based or functional assay).
With B1 the “Inhibition of IL-8 release in a dual cell assay (HEK293-cyCD30L cells + K299 cells) IC50” value (from here on “Inhibition of IL-8 release”) was 0.68 nM.
With B2 the “Inhibition of IL-8 release” value was 0.55 nM.
For B3, the “Inhibition of IL-8 release” value was 0.22 nM.
In the case of B4, the “Inhibition of IL-8 release” value is reported as 0.46 nM.
B5 was tested, and the “Inhibition of IL-8 release” value was 0.24 nM.

The binders below were run against T1, recombinant cynomolgus CD30L protein (cynomolgus) (assay: ELISA, cyCD30L, 1/50 dil).
T1 construct: Recombinant protein of the ELISA; also called cyCD30L; cyno CD30L
For B6, the “Elisa Binding (OD)” value was 3.2 OD.
For B7, the “Elisa Binding (OD)” value was 2.83 OD.
In the case of B8, the “Elisa Binding (OD)” value is reported as 3.76 OD.
With B9 the “Elisa Binding (OD)” value was 2.58 OD.

These binders were tested against T1, recombinant cynomolgus CD30L protein (assay: ELISA, cyCD30L, 1/500 dil).
B6 was tested, and the “Elisa Binding (OD)” value was 2.35 OD.
For B7, the “Elisa Binding (OD)” value was 2.87 OD.
For B8, the “Elisa Binding (OD)” value was 3.18 OD.
B9 was tested, and the “Elisa Binding (OD)” value was 2.38 OD.

These binders were tested against T1, recombinant cynomolgus CD30L protein (assay: ELISA, cyCD30L, 1/5000 dil).
With B6 the “Elisa Binding (OD)” value was 0.552 OD.
For B7, the “Elisa Binding (OD)” value was 1.16 OD.
B8 was tested, and the “Elisa Binding (OD)” value was 1.23 OD.
For B9, the “Elisa Binding (OD)” value was 0.583 OD.

What follows are binders tested against T2, recombinant human CD30L (human, UniProt P32971 63-234) (assay: ELISA on rhCD30L, OD 450 nm against Ab (nM)).
T2 construct: Recombinant or purified protein of the ELISA, BLI, Carterra and KinExA assays; construct not described; also called rhCD30L; huCD30L
T2 sequence (looked up): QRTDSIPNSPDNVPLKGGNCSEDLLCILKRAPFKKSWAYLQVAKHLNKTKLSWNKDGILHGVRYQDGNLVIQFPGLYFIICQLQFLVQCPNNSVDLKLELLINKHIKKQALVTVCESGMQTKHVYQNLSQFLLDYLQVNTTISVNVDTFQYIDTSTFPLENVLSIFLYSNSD
With B10 the “EC50 (read off the curve)” value was ~0.1 nM.

The binders below were run against T3, human CD30L expressed on B16 cells (human, UniProt P32971 1-234) (assay: flow cytometry on B16-huCD30L cells, MFI against Ab (nM)).
T3 construct: whole, on cells; B16 cell line transfected to express human CD30L; also called B16-huCD30L; hCD30L B16
T3 sequence (looked up): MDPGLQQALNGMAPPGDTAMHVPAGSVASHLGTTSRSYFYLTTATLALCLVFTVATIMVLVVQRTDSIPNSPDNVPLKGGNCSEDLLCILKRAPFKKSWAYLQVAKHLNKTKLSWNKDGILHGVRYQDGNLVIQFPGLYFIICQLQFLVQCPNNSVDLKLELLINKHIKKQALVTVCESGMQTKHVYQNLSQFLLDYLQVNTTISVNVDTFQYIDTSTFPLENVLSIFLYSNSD
With B10 the “EC50 (read off the curve)” value was ~2 nM.

Reference: US20260209372A1 (PROMETHEUS BIOSCIENCES, published 2026)
